Laboratory results reported in patent publication US20160083464A1 (MEDICAL AND BIOLOGICAL LABORATORIES, published 2016).
Where a chain is given by its changes, count along the chain named. One block for each binder: values may come before it.

Assays:
[1] = biological target: T1, human-derived transmembrane HB-EGF protein (wild type HB-EGF) (human, UniProt Q99075 20-208); experiment: flow cytometry on HB-EGF-expressing cells (summary of the selection)
T1 construct: also called human HB-EGF protein; cell surface HB-EGF
T1 sequence (Q99075 20-208): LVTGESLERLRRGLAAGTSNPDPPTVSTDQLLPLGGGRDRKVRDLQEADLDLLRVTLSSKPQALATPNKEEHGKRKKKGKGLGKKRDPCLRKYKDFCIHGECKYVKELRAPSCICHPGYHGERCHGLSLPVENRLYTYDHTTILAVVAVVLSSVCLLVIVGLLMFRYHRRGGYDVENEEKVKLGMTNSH

mutant HB-EGF F115A = mutant HB-EGF F115A (human, UniProt Q99075 20-208); experiment: flow cytometry on 293T cells transiently expressing the mutant, antibody 5 µg/mL
Sequence of mutant HB-EGF F115A (Q99075 20-208 F115A): as the sequence (Q99075 20-208) above, with F96A counted along it
Procedure: (§1) First, prepared were cells expressing amino acid point mutant HB-EGF to be subjected to the flow cytometry. To be more specific, genes encoding mutant HB-EGF shown in Table 1 were prepared by site-directed mutagenesis using the HB-EGF-pQCxmhIPG as a template. The obtained mutant HB-EGF genes were each inserted into an animal cell expression vector pQCxmhIPG to prepare a vector encoding each mutant HB-EGF. […] Thus, cells expressing amino acid point mutant HB-EGF were prepared.
(§2) Next, each of the anti-HB-EGF antibodies (5 μg/mL) and a secondary antibody (manufactured by Beckman Coulter, Inc., catalog number: IM0855, this antibody was diluted to 1/200 for use)) were allowed to react with the cells expressing the wild type HB-EGF or each mutant HB-EGF, and the mean fluorescence intensity was analyzed by the flow cytometry. […] Then, based on the obtained mean fluorescence intensity (antibody reactivity), the binding strength (relative value) of each anti-HB-EGF antibody to each mutant HB-EGF was calculated according to the following formula (Formula *).

mutant HB-EGF I117A = mutant HB-EGF I117A (human, UniProt Q99075 20-208); experiment: as above
Sequence of mutant HB-EGF I117A (Q99075 20-208 I117A): as the sequence (Q99075 20-208) above, with I98A counted along it
Procedure: as §1, §2

[2] = biological target: T1, human-derived transmembrane HB-EGF …; experiment: flow cytometry with 293T culture supernatant as primary antibody (the FIG. 11 legend says ELISA)
Procedure: The reactivity of the 35-1 chimeric antibody or the 35-1 humanized antibody with HB-EGF was evaluated by the flow cytometry.
The antibody concentration in the culture supernatant was calculated according to a sandwich ELISA method. […] After the plate was washed with 0.05% Tween 20-PBS, an HRP-labeled goat anti-mouse IgG (manufactured by MBL Co., Ltd., code number: 330) having been diluted to 1/10000 was added as a detection antibody in an amount of 50 μL/well and left to stand at room temperature for 1 hour. After the plate was washed with 0.05% Tween 20-PBS, a color developing solution was added thereto in an amount of 50 μL/well and left to stand at room temperature for 20 minutes to develop a color. The color development was terminated by adding 1 M phosphoric acid in an amount of 50 μL/well. Then, the absorbance at 450 nm was measured with a plate reader. Regarding the antibody concentration in the culture supernatant, a standard curve was created based on measured values obtained by serially diluting the antibody solution of a known concentration, and the antibody concentration was calculated from the measured values of the culture supernatant.

B1: 35-1 antibody (antibody, mouse IgG1, V domains shown)
VH: EVQLQQSGPELVKPRASVKISCKASGYSFSGYYMHWVKQSPEKSLEWIGEINPSTGGITYNQKFKAKATLTVDRSSSTAYMQLKSLTSEDSAVYYCTRITWAFAYWGQGTLVTVSA
VL: QIVLTQSPAIMSASPGEKVTMTCSASSSVTYMYWYQQKPGSSPRLLIYDTSNLASGVPVRFSGSGSGTSYSLTISRMEAEDAATYYCQQWSSYPPTFGGGTKLEIK
notes: Variable genes were amplified with mouse IgG1 CH1 and kappa constant region primers
binding result [1]: binds
binding result (mutant HB-EGF F115A): binds
binding result (mutant HB-EGF I117A): binds

B4: 292 antibody (antibody, mouse IgG1, V domains shown)
VH: EVQLQQSGPELVKPGASVKISCKASGYSFTGYYMHWVKQSPEKSLEWIGEINPSTGGTTYNQKFKAKATLTLDKSSSTAYMQLKSLTSEDSAVYYCAKSPYWDGAYWGQGTLVTVSA
VL: B1 VL with V29I, T30S, K38R, Y70H, P95S
notes: as for B1
binding result [1]: binds
binding result (mutant HB-EGF F115A): binds
binding result (mutant HB-EGF I117A): binds

Next, values leading:

binding result [2]: binds
B2: 35-1 chimeric antibody (antibody, V domains shown)
VH: B1 VH
VL: B1 VL
notes: Variable regions of the 35-1 antibody in Lonza human IgG1 antibody producing vectors (human IgG1 constant region); also called chimerized 35-1 antibody

binding result [2]: binds
B3: 35-1 humanized antibody (antibody, V domains shown)
VH: QVQLVQSGAEVVKPGSSVKVSCKASGYSFSGYYMHWVKQAPGQGLEWIGEINPSTGGITYNQKFKAKATLTVDRSTSTAYMELKSLTSEDTAVYYCTRITWAFAYWGQGTTVTVSS
VL: QIVLTQSPTTMAASPGEKITITCSASSSVTYMYWYQQRPGFSPKLLIYDTSNLASGVPVRFSGSGSGTSYSLTIGTMEAEDVATYYCQQWSSYPPTFGGGTKLEIK
notes: CDR-grafted variable regions in a Lonza human IgG1 vector (human IgG1 constant region); also called humanized 35-1 antibody
